Results as given in article PMC6690836 (Angewandte Chemie (International ed. in English), 2016).

Molecular target: the molecule itself
Assay: crystal structure

B1: Water soluble chlorophyll binding protein from cauliflower (CaWSCP), recombinant, assembled with Chl a (natural protein)
chain: REQVKDSNGNPVKRGAKYFIQPAKSNGGGLVPAAINILPFCPLGITQTLLPYQPGLPVSFGYEPVIVGTDYIYTSTTINIEFRSEIWPVCNELSKLWAVDVSSSAAKEPAIIIGGERTAPNSLFKIEEATGAHTYKLTTSSGTVGTIPGPWLGAPQLIATNDDAKTLFVKFVKVDDDAT
For B1, the “stoichiometry N” value was 4.
